Patent publication US20260176365A1 (SYNTHEKINE, published 2026)

Tests used:
[1] = target: T1, hGP130-his (Sino Biological, Catalog# 10974) (human, UniProt P40189 23-619); experiment: SPR (Biacore T200), Mono-Fc VHH captured on Protein A chip, hGP130-his in solution, 1:1 fit
T1 construct: Bought reagent; also called extracellular domain of gp130; not shown: C-terminal poly-His tag
T1 sequence: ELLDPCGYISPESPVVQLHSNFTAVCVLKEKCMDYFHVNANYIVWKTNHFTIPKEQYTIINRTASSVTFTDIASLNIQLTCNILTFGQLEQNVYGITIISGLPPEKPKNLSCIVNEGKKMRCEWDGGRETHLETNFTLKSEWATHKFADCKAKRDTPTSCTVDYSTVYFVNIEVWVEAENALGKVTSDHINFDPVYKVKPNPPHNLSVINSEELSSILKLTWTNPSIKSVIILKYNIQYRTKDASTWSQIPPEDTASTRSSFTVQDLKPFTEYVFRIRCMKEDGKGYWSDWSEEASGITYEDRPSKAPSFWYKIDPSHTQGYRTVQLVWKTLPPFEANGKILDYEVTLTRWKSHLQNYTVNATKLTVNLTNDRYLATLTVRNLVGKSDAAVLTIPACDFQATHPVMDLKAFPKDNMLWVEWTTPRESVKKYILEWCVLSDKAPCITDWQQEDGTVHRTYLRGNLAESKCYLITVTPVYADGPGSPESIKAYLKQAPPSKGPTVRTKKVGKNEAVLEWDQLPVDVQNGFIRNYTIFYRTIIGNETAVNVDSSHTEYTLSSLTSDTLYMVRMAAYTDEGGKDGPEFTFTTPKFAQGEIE
Procedure: A representative example from each hgp130 VHH and mgp130 VHH clonotype generated in accordance with Examples 1-3 was selected for evaluation of binding via SPR as follows. […] All experiments were conducted in 10 mM Hepes, 150 mM NaCl, 0.05% (v/v) Polysorbate 20 (PS20) and 3 mM EDTA (HBS-EP+ buffer) on a Biacore T200 instrument equipped with a Protein A derivatized sensor chip (Cytiva). Mono-Fc VHH ligands were flowed at 5 μl/min for variable time ranging from 18 to 300 seconds, reaching the capture loads listed in the tables below. Following ligand capture, […], typically comprising at least five concentrations between 1 μM and 1 nM, were performed in either high performance or single cycle kinetics mode. Surface regeneration was achieved by flowing 10 mM glycine-HCl, pH 1.5 (60 seconds, 50 μL/min). Buffer-subtracted sensograms were processed with Biacore T200 Evaluation Software and globally fit with a 1:1 Langmuir binding model (bulk shift set to zero) to extract kinetics and affinity constants (kₐ, kd, KD). RMAX<100 RU indicates surface density compatible with kinetics analysis. Calculated Rₘₐₓ values were generated using the equation: Rₘₐₓ=Load (RU)×valency of ligand×(Molecular weight of analyte/Molecular weight of ligand). Surface activity was defined as the ratio of experimental/calculated Rmax.

[2] = target: hGP130-his (Sino Biological, Catalog# 10974) (human) (UniProt P40189); experiment: as above
[3] = target: T2, mgp130 ECD antigen (mouse, UniProt Q00560 23-617); experiment: periplasmic extract ELISA (PE-ELISA) of phage clones
T2 construct: Antigen of biopanning and PE-ELISA; The immunogen was an ECD-human IgG1 hinge-Fc fusion; also called ECD of mouse gp130; ngp130 ECD antigen (so in the source)
T2 sequence: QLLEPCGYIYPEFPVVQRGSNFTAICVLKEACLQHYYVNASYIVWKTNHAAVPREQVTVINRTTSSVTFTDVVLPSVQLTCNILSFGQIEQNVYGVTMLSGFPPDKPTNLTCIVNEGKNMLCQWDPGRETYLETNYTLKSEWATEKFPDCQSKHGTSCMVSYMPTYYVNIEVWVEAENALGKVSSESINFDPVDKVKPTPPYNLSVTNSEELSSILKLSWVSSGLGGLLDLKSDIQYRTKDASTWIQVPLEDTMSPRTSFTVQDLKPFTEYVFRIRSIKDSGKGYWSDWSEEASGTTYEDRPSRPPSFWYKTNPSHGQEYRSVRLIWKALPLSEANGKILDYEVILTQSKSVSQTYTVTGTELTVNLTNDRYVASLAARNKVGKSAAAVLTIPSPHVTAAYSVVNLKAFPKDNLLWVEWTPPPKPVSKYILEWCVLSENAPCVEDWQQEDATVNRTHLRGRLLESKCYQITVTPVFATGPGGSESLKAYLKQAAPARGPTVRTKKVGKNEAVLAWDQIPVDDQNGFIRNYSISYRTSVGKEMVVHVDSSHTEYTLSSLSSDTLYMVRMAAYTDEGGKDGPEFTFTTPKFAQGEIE

B1: DR592 Mono-Fc VHH (Fc fusion)
chain: QVQLQESGGGSVQAGGSLRLSCTAPGFTSNSCGMDWYRQAPGKEREFVSSISTDGTTGYADSVKGRFTISKDKAKDTVYLQMNSLKPEDTGMYSCKTKDGTIATMELCDFGYWGQGTQVTVSS
notes: Mono-Fc format is not described further; also called anti-hGP130 Mono-Fc VHH; not shown: Fc part of the Mono-Fc format
[1]
  Kd: 38 nM
  koff: 0.0059 s⁻¹
  kon: 160000 M⁻¹ s⁻¹

B2: DR593 Mono-Fc VHH (Fc fusion)
chain: QVQLQESGGGSVQAGGSLRLSCAASGYPYSNGYMGWFRQAPGKEREGVATIYTGDGRTYYADSVKGRFTISRDNAKNTVDLQMSSLKPEDTAMYYCAARAAPLYSSGSPLTRARYNVWGQGTQVTVSS
notes: as for B1
[1]
  Kd: 82 nM
  koff: 0.021 s⁻¹
  kon: 250000 M⁻¹ s⁻¹

B3: DR591 Mono-Fc VHH (Fc fusion)
chain: QVQLQESGGGSVQAGGSLRLSCTASGAIASGYIDSRWCMAWFRQAPGKEREGVAAIWPGGGLTVYADSVKGRFTISRDHAKNTLYLQMNNLKPEDTAMYYCAAGSPRMCPSLEFGFDYWGQGTQVTVSS
notes: as for B1
[1]
  Kd: 33 nM
  koff: 0.0019 s⁻¹
  kon: 59000 M⁻¹ s⁻¹

B4: DR594 Mono-Fc VHH (Fc fusion)
chain: QVQLQESGGGSVQAGGSLRLSCVASASTYCTYDMHWYRQAPGKGREFVSAIDSDGTTRYADSVKGRFTISQGTAKNTVYLQMNSLQPEDTAMYYCKTVCVVGSRWSDYWGQGTQVTVSS
notes: as for B1
[1]
  Kd: 58 nM
  koff: 0.0095 s⁻¹
  kon: 160000 M⁻¹ s⁻¹

B5: mgp130_VHH44 Mono-Fc VHH (Fc fusion, not shown: a dimerising Fc or GST)
chain: QVQLQESGGGLVQPGGSLRLSCTASGFTFNSAHLKWERQPPGKGLEWVSFITNGGASTGYADSVKGRFTISRDDAKNTLYLQMNNLKTEDTAVYYCATGGLRGQGTQVTVSS
[2]
  Kd: 6 nM
  koff: 0.0012 s⁻¹
  kon: 200000 M⁻¹ s⁻¹

B6: DR595 Mono-Fc VHH (Fc fusion)
chain: QVQLQESGGGSVQAGGSLTLSCAASEYAYSTCNMGWYRQAPGKERELVSAFISDGSTYYADSVKGRFTITRDNAKNTVYLQMNSLKPEDTAIYYCSANCYRRLRNYWGQGTQVTVSS
notes: as for B1
[1]
  Kd: 41 nM
  koff: 0.0073 s⁻¹
  kon: 180000 M⁻¹ s⁻¹

B7: DR596 Mono-Fc VHH (Fc fusion)
chain: QVQLQESGGGLVQPGGSLRLSCTASGLTFDDSVMGWFRQAPGKGREAVSCISSSGANAFYADSVKGRFTISRDNAKNTLYLQMNSLKPEDTATYYCKRGHACAGYYPIPYDDYWGQGTQVTVSS
notes: as for B1
[1]
  Kd: 44 nM
  koff: 0.0082 s⁻¹
  kon: 190000 M⁻¹ s⁻¹

B8: mgp130_VHH16 Mono-Fc VHH (Fc fusion, not shown: a dimerising Fc or GST)
chain: QVQLQESGGGLVQPGGSLRLSCAASGFTFRNYAMSWVRQAPGKGLEWVSAINSGGGSTYYADSVKGRFTISRDNAKNTLYLQMNSLKPEDTAMYYCAKHVTGDYDPSLRYEYNYWSQGTQVTVSS
[2]
  Kd: 17.4 nM
  koff: 0.00036 s⁻¹
  kon: 21000 M⁻¹ s⁻¹

B9: mgp130_VHH48 Mono-Fc VHH (Fc fusion, not shown: a dimerising Fc or GST)
chain: QVQLQESGGALVQPGGSLRLSCAASGFTFSYYAMKWVRQAPGKGLEWVSSISGGGGATYYADSVKGRFTISRDNTNDTLYLQMNSLKTEDTAVYYCAAQNLDYRGQGTQVTVSS
[2]
  Kd: 42 nM
  koff: 0.0018 s⁻¹
  kon: 43000 M⁻¹ s⁻¹

B10: mgp130_VHH6 Mono-Fc VHH (Fc fusion, not shown: a dimerising Fc or GST)
chain: QVQLQESGGGLVQPGGSLRLSCAASGFTLSTYWMYWVRQAPGKGPEWVSAVSRGGFNTYYADSVKGRFTISRDNAKNTVYLQMNSLKPEDTAVYYCMSSVSFYGWPPDRVPSPTGQGTQVTVSS
[2]
  Kd: 229 nM
  koff: 0.03 s⁻¹
  kon: 130000 M⁻¹ s⁻¹

B11: mgp130_VHH6 (VHH)
VHH: QVQLQESGGGLVQPGGSLRLSCAASGFTLSTYWMYWVRQAPGKGPEWVSAVSRGGFNTYYADSVKGRFTISRDNAKNTVYLQMNSLKPEDTAVYYCMSSVSFYGWPPDRVPSPTGQGTQVTVSS
notes: As periplasmic extract of the phage clone; also called anti-mouse gp130 VHH; not shown: HA/His tag of the pMECS phagemid
[3]
  binding result: binds

B12: mgp130_VHH5 Mono-Fc VHH (Fc fusion, not shown: a dimerising Fc or GST)
chain: QVQLQESGGGSVQAGGSLRLSCVISGFTYRQTFMGWFRQVVGKEREGVAAISTGGGSTIYADSVKGRFTISQDSSKDTVYLEMNGLKLEDTGMYYCAASTVITSESINRNLYQYWGQGTQVTVSS
[2]
  Kd: 90 nM
  koff: 0.0081 s⁻¹
  kon: 90000 M⁻¹ s⁻¹

B13: mgp130_VHH13 Mono-Fc VHH (Fc fusion, not shown: a dimerising Fc or GST)
chain: QVQLQESGGGSVQPGGSLRLSCAASGFTFSTYDMSWVRQAPGKGLEWVSTINYSGSSTYYVDSVLGRFTIARDNAKNTLYLQMNNLQTEDTAVYYCASVKERRSNGHPIVFGDRGQGTQVTVSS
[2]
  Kd: 35.6 nM
  koff: 0.0037 s⁻¹
  kon: 110000 M⁻¹ s⁻¹

B14: mgp130_VHH13 (VHH)
VHH: QVQLQESGGGSVQPGGSLRLSCAASGFTFSTYDMSWVRQAPGKGLEWVSTINYSGSSTYYVDSVLGRFTIARDNAKNTLYLQMNNLQTEDTAVYYCASVKERRSNGHPIVFGDRGQGTQVTVSS
notes: as for B11
[3]
  binding result: binds
